# Laboratory results as given in patent US20250000945A1, “Suppression of Neurodegeneration with Zinc Transporter Protein 7” (The Regents of the University of California, priority 2021, published 2025).
# B1: CatsupV5: V5-tagged wild type Catsup, the Drosophila homolog of ZIP7, expressed under Gal4/UAS control (protein, UniProt Q9V3A4 1-449, looked up)
# Protein catecholamines up: MAKQVADYQCSKLQLYQKLALVVILGAVLFSLPALCAGQGNPSFKYSREANENFDPQKAPRAEHHHHHDHDHDHGHHHHGHDHDHDHDHGHDHGHHHHGHDHDHDHDHGHHHHGHDERHTKAKPDLDMSTIWLHSIGSTLLISAAPFVLLYIIPLDNSEAMKPRLKVLLAFASGGLLGDAFLHLIPHATHPHSHGEHGHDHGHDHHHHHDGEEHEHGHSHDMSIGLWVLGGIIAFLSVEKLVRILKGGHGGHGHSHGAPKPKPVPAKKKSSDKEDSGDGDKPAKPAKIKSKKPEAEPEGEVEISGYLNLAADFAHNFTDGLAIGASYLAGNSIGIVTTITILLHEVPHEIGDFAILIKSGCSRRKAMLLQLVTALGALAGTALALLGAGGGDGSAPWVLPFTAGGFIYIATVSVLPELLEESTKLKQSLKEIFALLTGVALMIVIAKFE
# modifications: V5 tag
# notes: V5-tagged wild type Catsup, the Drosophila homolog of ZIP7, expressed under Gal4/UAS control
# B2: ZIP7: zinc transporter protein 7, overexpressed from a transgene; SEQ ID NO:4 (Drosophila), SEQ ID NO:5 (human) (protein, UniProt Q92504 1-469, looked up)
# Zinc transporter SLC39A7: MARGLGAPHWVAVGLLTWATLGLLVAGLGGHDDLHDDLQEDFHGHSHRHSHEDFHHGHSHAHGHGHTHESIWHGHTHDHDHGHSHEDLHHGHSHGYSHESLYHRGHGHDHEHSHGGYGESGAPGIKQDLDAVTLWAYALGATVLISAAPFFVLFLIPVESNSPRHRSLLQILLSFASGGLLGDAFLHLIPHALEPHSHHTLEQPGHGHSHSGQGPILSVGLWVLSGIVAFLVVEKFVRHVKGGHGHSHGHGHAHSHTRGSHGHGRQERSTKEKQSSEEEEKETRGVQKRRGGSTVPKDGPVRPQNAEEEKRGLDLRVSGYLNLAADLAHNFTDGLAIGASFRGGRGLGILTTMTVLLHEVPHEVGDFAILVQSGCSKKQAMRLQLLTAVGALAGTACALLTEGGAVGSEIAGGAGPGWVLPFTAGGFIYVATVSVLPELLREASPLQSLLEVLGLLGGVIMMVLIAHLE
# Columns and labels:
# [1] = test system: border cells expressing Rh1^G69D; assay: ER stress (Xbp1::EGFP) and migration of border cells expressing misfolded rhodopsin Rh1^G69D; type: in vivo, Drosophila; details: overexpression
# From the text: To test whether ER stress impairs border cell migration, we expressed a misfolded rhodopsin protein Rh1^G69D, known to induce ER stress^61 As expected, Rh1^G69D induced Xbp1 expression in border cells (FIG. 4D insert). […] Since loss of Catsup caused ER stress, we wondered if Catsup over-expression might suppress ER stress.
# Catsup mutant fly was generated by ethyl methanesulfonate (EMS) mutagen^37. The mutation results in glycine(G) to aspartic acid(D) replacement at amino acid 178. The FLP/FRT system was used to generate the Catsup^G178D homozygous mutant clones by combining FRT40A-Catsup^G178D with hsFLP12,yw;ubi:GFPnls, FRT40A or hsFLP12,yw;ubi:RFPnls, FRT40A/(CyO). Catsup::GFP expression pattern visualized by the line from VDRC 318542 in the fTRG stocks library. The UAS-CatsupRNAi transgenic line is from VDRC 100095 P{KK103630}VIE-260B. Wild type rescue w[*]; sna[Sco]/CyO; P{w[+mCJ=UAS-Catsup. V5}6 Bloomington 63229. Additional transgenic Drosophila stocks used: UAS-wRNAi/Cyo is a lab stock, UAS-PleRNAi Bloomington 25796 y[1] v[1]; P{y[+t7.7] v[+t1.8]=TRiP.JF01813}attP2, UAS-Ple is Bloomington 37539 w[*]; P{w[+mC]=UAS-ple.T}331f2, O-fucosyltransferasel Bloomington 9376 P{UAS-O-fut.}]1.1, UAS-Notch.Intracellular.Domain on third chromosome was a gift from Artavanis-Tsakonas lab^71. […]
# [2] = test system: misfolded rhodopsin protein Rh1^G69D; assay: Rh1^G69D protein abundance in cells over-expressing Catsup (ERAD); type: in vivo, Drosophila; details: border cells, overexpression
# Chain of misfolded rhodopsin protein Rh1^G69D (P06002 whole entry G69D): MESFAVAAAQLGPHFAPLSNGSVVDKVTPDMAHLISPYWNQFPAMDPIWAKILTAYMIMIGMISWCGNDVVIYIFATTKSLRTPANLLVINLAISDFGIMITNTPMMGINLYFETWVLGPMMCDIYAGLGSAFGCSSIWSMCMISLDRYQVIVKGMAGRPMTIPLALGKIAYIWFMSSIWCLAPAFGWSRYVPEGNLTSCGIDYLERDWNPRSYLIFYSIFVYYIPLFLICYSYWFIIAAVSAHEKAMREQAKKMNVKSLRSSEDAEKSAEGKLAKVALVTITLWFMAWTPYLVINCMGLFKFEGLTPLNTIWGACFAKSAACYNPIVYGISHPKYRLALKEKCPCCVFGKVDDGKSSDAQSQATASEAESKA
# Method: The UPR reinstates ER homeostasis by upregulating the protein-folding capacity of the ER and increasing its protein-degradation capacity^62. During ERAD, misfolded proteins are extruded from the ER, ubiquitinated, and degraded by the proteasome^60. To test whether Catsup overexpression might enhance ERAD, we examined Rh1^G69D protein abundance in cells over-expressing Catsup.
# Female flies were fattened with yeast for 2 days at 29° C. Egg chambers were dissected from ovaries of female flies in Schneider's medium with 10% FBS (pH=6.85-6.95) as described previously^72. Freshly dissected egg chambers were fixed in 4% paraformaldehyde and then incubated overnight in 1×PBS with 0.4% triton and the following primary antibodies: mouse anti-PDI (1:200) (ADI-SPA-891-D Enzo Life Sciences, Inc.), chicken anti-GFP (1:200) (ab13970 Abcam plc.), Ple (anti-TH) antibody (a gift from the Craig Montell lab), mouse anti-Notch intracellular domain (1:100) C17.9C6 DSHB, rat Ecadherin antibody DCAD2 (1:50) DSHB, V5 Tag Monoclonal Antibody-Alexa Fluor 555 (2F11F7) Invitrogen, mouse anti-dEGFR (1:2000) E2906 Sigma Aldrich. O-fut1 antibody was used to confirm O-fut1 overexpression, and was a gift from Kenneth D. Irvine lab 73. Secondary antibodies were incubated for 2 hours, together with Hoechst stain for nuclei, and phalloidin stain for F-actin. […]
# [3] = test system: follicle cells / border cells; assay: ER stress markers (Xbp1::EGFP, PDI) in cells lacking Catsup; type: in vivo, Drosophila; details: mosaic clones expressing CatsupRNAi
# From the text: To test if Catsup knockdown induces the UPR in follicle cells, we compared expression of the ER stress marker Xbp1::EGFP^59 in mosaic border cell clusters composed of heterozygous Catsup^+/− and homozygous Catsup^−/− mutant cells. We found high levels of Xbp1 in Catsup^−/− but not Catsup^+/− border cells (FIG. 4A-A″). […] Accumulation of XBP1 and PDI are indicative of induction of an adaptive UPR^60. This effect was rescued by co-expression of CatsupV5 (FIG. 4C-C″).
# Catsup mutant fly was generated by ethyl methanesulfonate (EMS) mutagen^37. The mutation results in glycine(G) to aspartic acid(D) replacement at amino acid 178. The FLP/FRT system was used to generate the Catsup^G178D homozygous mutant clones by combining FRT40A-Catsup^G178D with hsFLP12,yw;ubi:GFPnls, FRT40A or hsFLP12,yw;ubi:RFPnls, FRT40A/(CyO). Catsup::GFP expression pattern visualized by the line from VDRC 318542 in the fTRG stocks library. The UAS-CatsupRNAi transgenic line is from VDRC 100095 P{KK103630}VIE-260B. Wild type rescue w[*]; sna[Sco]/CyO; P{w[+mCJ=UAS-Catsup. V5}6 Bloomington 63229. […]
# border cells = assay: Border cell migration in stage 10 egg chambers expressing Catsup RNAi (rescue by co-expressed transgenes); type: in vivo, Drosophila; details: co-expressed with Catsup RNAi in border cells
# From the text: Border cell clusters are composed of 4-6 migratory cells that surround and carry two non-migratory polar cells. Expression of a Catsup RNAi line in outer, migratory border cells using fruitlessGal4^51 inhibited migration (FIG. 2A). The defect was rescued by co-expression of UAS-CatsupV5 (FIG. 2B). Reduction of Catsup::GFP confirmed the effectiveness of the RNAi (FIGS. 2C, C′ and 2D, D′). Border cell migration was also impaired when Catsup RNAi was driven by c306Gal4 (FIG. 2E), which is expressed in both polar and migratory cells.
# ZIP7 resides in the ER membrane and transports Zn^2+ from the ER to the cytosol^64. To test whether the Zn^2+ transporter activity of Catsup was important for border cell migration, we introduced point mutations, H315A and H344A, which replace histidine residues that are required for Zn^2+ transport and are conserved between Catsup, ZIP7 and a more distant family member from Arabidopsis IRT1. […] We generated transgenic flies expressing the mutants under Gal4/UAS control and included a V5 tag so that we could monitor protein abundance and localization. We then co-expressed each of these RNAi-resistant transgenes with CatsupRNAi and evaluated protein expression and border cell migration (FIGS. 5B-5E). […] All the proteins were stably expressed and correctly localized to the ER (FIGS. 5B-5E), therefore the lack of rescue was likely a consequence of impaired transporter activity rather than impaired expression, localization, or another function. […] From these experiments, we conclude that Zn^2+ transport is an essential function of Catsup in promoting ERAD.
# Catsup mutant fly was generated by ethyl methanesulfonate (EMS) mutagen^37. The mutation results in glycine(G) to aspartic acid(D) replacement at amino acid 178. The FLP/FRT system was used to generate the Catsup^G178D homozygous mutant clones by combining FRT40A-Catsup^G178D with hsFLP12,yw;ubi:GFPnls, FRT40A or hsFLP12,yw;ubi:RFPnls, FRT40A/(CyO). Catsup::GFP expression pattern visualized by the line from VDRC 318542 in the fTRG stocks library. The UAS-CatsupRNAi transgenic line is from VDRC 100095 P{KK103630}VIE-260B. Wild type rescue w[*]; sna[Sco]/CyO; P{w[+mCJ=UAS-Catsup. V5}6 Bloomington 63229. Additional transgenic Drosophila stocks used: UAS-wRNAi/Cyo is a lab stock, UAS-PleRNAi Bloomington 25796 y[1] v[1]; P{y[+t7.7] v[+t1.8]=TRiP.JF01813}attP2, UAS-Ple is Bloomington 37539 w[*]; P{w[+mC]=UAS-ple.T}331f2, O-fucosyltransferasel Bloomington 9376 P{UAS-O-fut.}]1.1, UAS-Notch.Intracellular.Domain on third chromosome was a gift from Artavanis-Tsakonas lab^71. The ER stress marker UAS-Xbp1-EGFP.HG Bloomington 60731 w[*]; P{w[+mC]=UAS-Xbp1.EGFP.HG}3, UAS-HSC70-3 Bloomington 5843 w[126]; P{w[+mC]=UAS-Hsc70-3. WT}B. Catsup point mutations were cloned into vector pUASt-attb with forward primer ctctgaatagggaattggg[…] (SEQ ID NO:1) and reverse primer ccgcagatctgttaacgtca[…] (SEQ ID NO:2). The vector was injected to attp2 flies y1 w67c23; P{CaryP}attP2 by BestGene Inc.
# When generating UAS-Catsup-point-mutations, we designed the construct so it cannot be targeted by the CatsupRNAi sequences by substituting redundant codons for the same amino acids within the region targeted by the RNAi. The RNAi resistant sequence is below with nucleic acid substitutions in lower case:
# Point mutations were designed by changing codons at the following site CatsupH183A (CAC to GCC), CatsupH187A (CAT to GCT), CatsupH315A (CAT to GCT), CatsupH344A ([…]). […]
# amyloid β42 = assay: Neurodegeneration due to expression of amyloid β42 in flies; type: in vivo; details: ZIP7 overexpression
# From the text: FIG. 10. ZIP7 overexpression suppresses neurodegeneration due to expression of amyloid β42.
# (§1) Overexpression of ZIP7 may mitigate ER stress and neuronal cell death in protein aggregation diseases (FIG. 7). We screened aggregate prone proteins for ZIP7 rescue (FIG. 8). ZIP7 overexpression suppressed neurodegeneration due to expression of Vap33 (FIG. 9) and amyloid β42 (FIG. 10).
# [4] = test system: ubiquitinated proteins / proteasome; assay: Ubiquitinated protein levels (FK2/DNA ratio) in egg chambers with and without MG132; type: in vivo, Drosophila
# Method: FIGS. 12A-12C. Overexpressing ZIP7 decreases ubiquitinated protein levels. (FIG. 12A) Egg chambers with and without ZIP7 overexpression (OE) were incubated with media for 5 hours. (FIG. 12B) Egg chambers with and without ZIP7 overexpression (OE) were treated with 10 μM MG132 proteasome inhibitor for 5 hours. (FIG. 12C) Comparison of FK2/DNA ratio egg for chambers incubated with media or 10 μM MG132 proteasome inhibitor for 5 hours with or without ZIP7 overexpression.
# Egg chambers with and without ZIP7 overexpression (OE) were incubated with media in the presence or absence of the MG132 proteasome inhibitor (10 μM) for 5 hours (FIGS. 12A and 12B). Overexpressing ZIP7 decreased ubiquitinated protein levels and the FK2/DNA ratio (FIG. 12C).
# Vap33 = assay: Neurodegeneration due to expression of Vap33 in flies; type: in vivo; details: ZIP7 overexpression
# From the text: FIG. 9. ZIP7 overexpression suppresses neurodegeneration due to expression of Vap33.
# as §1
# photoreceptor cells = assay: Rh1G69D-induced photoreceptor cell death (rough eye) in flies; type: in vivo; details: flies expressing Rh1G69D, ZIP7 overexpression
# From the text: FIGS. 6A-6B. ZIP7 prevents Rh1G69D-induced photoreceptor cell death, which causes a rough eye. (FIG. 6A) Percentage of flies having the Rh1^G69D genotype that develop rough eye in presence and absence of ZIP7 expression. (FIG. 6B) Comparison of eye morphology of flies having the Rh1^G69D genotype in presence and absence of ZIP7 expression.
# ZIP7 overexpression prevented photoreceptor cell death in the eyes of flies expressing mutant forms of rhodopsin.
# [5] = egg chambers, media with or without 10 μM MG132, 5 hours
Molecule,Rh1^G69D-induced Xbp1 expression [1],border cell migration blocked by Rh1^G69D [1],Rh1^G69D protein abundance [2],rescue of ER stress (Xbp1 and PDI accumulation) [3],rescue of border cell migration defect (border cells),neurodegeneration due to expression of amyloid β42 (amyloid β42),"FK2/DNA ratio [4, 5]","ubiquitinated protein levels [4, 5]",activity of the proteasome ([4]; even in the presence of a proteasome inhibitor),neurodegeneration due to expression of Vap33 (Vap33),photoreceptor cell death (rough eye) (photoreceptor cells)
B1,rescued,rescued,reduced Rh1^G69D protein to an undetectable level,rescued,rescued,–,–,–,–,–,–
B2,–,–,–,–,–,suppressed,decreased,decreased,enhances,suppressed,prevented
